From US20120058118A1 (Boehringer Ingelheim, published 2012) come the findings set out here.

Where a chain is given by its changes, count along the chain named. Like-named read-outs stand apart in the source and are kept apart here. Ends that are not written are not given here. * marks the point of attachment. Biotin = O=C1N[C@H]2[C@H](CS[C@H]2CCCCC(=O)*)N1

For assay [1], the target named is T1, human A-beta(1-40) peptide, monomeric (BAM) (human, biotin at the C-terminus in capture ELISA, SPR and TR-FRET; not biotinylated where coated directly (Example 7)).
T1 construct: synthetic peptide (Anaspec), TFA/HFIP treated to give monomer; also called monomeric A-beta
Description: TR-FRET competition, labelled ABII42D4. In general terms: In TR-FRET formats the signal depends on donor and acceptor labels being close together.

Assay [2] has as its target T1, human A-beta(1-40) peptide, monomeric …. Briefly: BAM ELISA. A general note: ELISA stands for enzyme-linked immunosorbent assay.
The target in assay [3] is T2, aggregated A-beta(1-40) peptide (BAA) (human).
T2 construct: also called A-beta peptide aggregates
Briefly: BAA ELISA.

The target in another assay is T3, A-beta(1-16) peptide (human).
T3 construct: Bachem peptide captured on streptavidin chip; also called monomeric A-beta(1-16)
T3 peptide: DAEFRHDSGYEVHHQK-biotin
Briefly: SPR on captured A-beta(1-16).

Assay [4] deals with T1, human A-beta(1-40) peptide, monomeric …. Briefly: TR-FRET competition and SPR.
For assay [5] the target is unchanged. Briefly: TR-FRET competition, labelled ABII42D4. The source holds these as a separate data set.
The target is the same in assay [6]. Description: ABII050 TR-FRET competition assay.
The target is the same in assay [7]. Briefly: ABII002 TR-FRET competition assay.
Assay [8] has the same target. Description: ABII002 TR-FRET competition assay. The source holds these as a separate data set.
For assay [9] the target is unchanged. Description: BAM ELISA. The source holds these as a separate data set.
Assay [10] shares this target. Briefly: TR-FRET competition.
For assay [11], the target named is T2, aggregated A-beta(1-40) peptide (BAA). Briefly: BAA ELISA. This is another data set of the same source.
Assay [12] has as its target T1, human A-beta(1-40) peptide, monomeric …. Briefly: cell-based or functional assay.
Another assay has as its target T4, A-beta(12-28) peptide (human).
T4 construct: Bachem peptide captured on streptavidin chip; also called monomeric A-beta(12-28); central region
T4 peptide: Biotin-VHHQKLVFFAEDVGSNK
Description: SPR on captured A-beta(12-28).

For assay [13], the target named is T1, human A-beta(1-40) peptide, monomeric …. Briefly: TR-FRET competition, labelled ABII60A10.
Assay [14] has the same target. Briefly: SPR (Biacore T100), periplasmic extracts on captured biotinylated A-beta(1-40), 1:1 model. On the technique in general: SPR reads the build-up and loss of mass on a sensor chip optically.
Description: (§1) After capturing, surfaces are blocked by injecting an excess (200 μg/ml) of d-biotin for 180 s at 5 μl/min. A reference surface is washed and blocked with d-biotin. HBS-EP+buffer is used as the running buffer and experiments are performed at 25° C. For off-rate screening, periplasmic extracts of VHHs are injected at a 10-fold dilution for 2 min at 45 μl/min and are allowed to dissociate for 10 min. […] Between different VHH samples, the surfaces are regenerated with regeneration buffer (50 mM NaOH) for 25 s at 45 μl/min followed by 10 s 6M GuHCl at 45 μl/min if regeneration is incomplete. […] Data are double referenced by subtraction of the curves on the reference channel and of a blank running buffer injection. Sensorgrams are evaluated by fitting a 1:1 dissociation model using the Biacore T100 Evaluation software v1.1.1.
Assay [15] shares this target. Briefly: cell-based or functional assay. The source holds these as a separate data set.
Assay [16] shares this target. Description: TR-FRET competition; labelled competitor not given.
Assay [17] has the same target. Description: TR-FRET competition. The source holds these as a separate data set.
The target is the same in assay [18]. Description: 60A10 TR-FRET assay (labelled ABII60A10).
The target is the same in assay [19]. Briefly: TR-FRET competition, mean IC50.
For assay [20] the target is unchanged. Briefly: 42D4 TR-FRET assay (labelled ABII42D4).
Assay [21] shares this target. Description: ELISA, format not stated.
Assay [22] has as its target T5, human A-beta peptide (residues 1-24) (human).
T5 construct: used for co-crystallisation; also called A-beta(1-24)
Briefly: crystal structure.
Description: The complex is concentrated by diafiltration to a concentration of 4 mg/ml. Crystallization trials are set up as sitting drop vapour diffusion experiments by mixing 200 nl of protein with 200 nl of reservoir solution against a reservoir volume of 100 μl. […] Data are collected at the beamline 6SA of the swiss light source at the Paul-Scherrer Institute in Villigen, Switzerland.

T5 sequence (peptide, as listed by the source): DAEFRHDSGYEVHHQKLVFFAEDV
Description for A-beta(1-16) peptide: as §1
Description for A-beta(12-28) peptide: as §1

B1: ABII5D2 (VHH)
VHH: EVQLVESGGGLVQAGGSLRLSCAASGRTFSSYAMGWVRQAPGKERELVATISQSGGLRSYADSVKGRFTISRDNAKNTVYLQMNSLTPGDTAVYYCAAQARATAWSPQRVDYWGQGTQVTVSS
One may read the IC50 as the midpoint of a concentration-inhibition curve. A word on the EC50: it is the midpoint of the concentration-response curve. With B1, the IC50 in [1] is greater than 1000 nM. Moreover, the values for the EC50 in assay [2] and in assay [3] were 54.1 nM and 11.7 nM, respectively. Also, in the assay with A-beta(1-16) peptide, the binding result is on record as “binds”.

B2: ABII111B5_E109Q (VHH)
VHH: EVQLVESGGGLVLAGGSLRLSCVHSGPTFRTDTMGWFRQAPGKEREFVAAVTWNSGRINYADSVKGRFTVSRDNTRNAAYLQMSGLKDEDTAVYYCTAHRFVVGGNMVQDWRYWGQGTQVTVSS
notes: targeted mutant
Take B2: in assay [4], the “fold improvement of IC50 and KD over original ABII42D4” value was greater than 10 fold. The molecule further came in with an IC50 in assay [5] of 3.7 nM.

B3: ABII111B5_M107E (VHH)
VHH: B2 VHH with M107E, Q109E
notes: targeted mutant
As to B3, the “fold improvement of IC50 and KD over original ABII42D4” value in assay [4] is greater than 10 fold. The same molecule showed an IC50 in assay [5] of 4.3 nM.

B4: ABII42G10 (VHH)
VHH: EVQLVESGGGLVQAGGSLRLSCLFSGRTFSTNGVGWFRQVPGKEREFVSAINWSGSKTNYAEPVKGRFTISRDNAKNTAYLQMNSLKPEDTAVYYCAAYRTSISRYEYAYWGQGTQVTVSS
B4 yielded an IC50 in assay [1] greater than 1000 nM. For the same molecule, the EC50 in assay [2] was determined as 87 nM; in [3] it was 49.5 nM. Also, the binding result with A-beta(1-16) peptide is given as “binds”.

B5: ABII315-PEG20 (designed binder)
chain: EVQLLESGGGLVQPGGSLRLSCAASGRTFNNYNMGWFRQAPGKGREFVAAVSRSGVSTYYADSVKGRFTISRDNSKNTVYLQMNSLRPEDTAVYYCAAAYRGTAINVRRSYSSWGQGTLVTVSSGGGGCGGGSEVQLLESGGGLVQPGGSLRLSCVHSGPTFRTDTMGWFRQAPGKGREFVAAVTWNSGRINYADSVKGRFTISRDNSKNTAYLQMNSLRPEDTAVYYCAAHRFVVGGNRVEDWRYWGQGTLVTVSS
modifications: PEG20 on the Cys at position 5 of the 9GS linker
notes: 059-9GSC-035; purified as His6-tagged construct before PEGylation
Take B5: the IC50 in assay [6] turned out to be 0.28 nM; in [8], 0.13 nM. In [7], the “fold improved IC50 against monovalent ABII035” value was found to be 27 fold. Further, in assay [7], the “fold improved potency against 3D6 IgG” value stood at 14.6 fold.

B6: reference VHH 2G6 (VHH)
VHH: QVKLEESGGGLVQPGGSLRLSCAASGFTFSNYWMYWVRQAPGKGLEWVSTISPRAANTYYADSVKGRFTISRDNAKNTLYLQMNSLEPDDTALYYCAKSLRYRDRPQSSDFLFWRQGTQVTVSS
notes: from WO2006/40153
As for B6, the EC50 in assay [9] is 98.6 nM; in assay [2] it was 98.6 nM; in [11] it was 7.2 nM; in assay [3], 7.2 nM. Besides, the IC50 in assay [1] and in assay [10] was greater than 1000 nM each time. In addition, the “Aggregation inhibition (% inhibition at 26 µM)” value in assay [12] was determined as 29%.

B7: ABII60G11 (VHH)
VHH: EVQLVESGGGSEQAGGSLRLSCATSGRAFSVYAWFRQAPGKERTFVAAVAWVGGSTFYSDSVKGRFTISRDNAKNTVFLHMNSLKPEDTAAYYCAARLYGGRWYNSPRVDDFEYWGQGTQVTVSS
In general, koff refers to the rate constant with which the complex falls apart. Consider B7, for which the concentration giving a half-maximal response (EC50) in assay [2] worked out at 187 nM; in assay [3], 6 nM. In the assay with A-beta(12-28) peptide, the binding result is “binds”. Besides, the IC50 in assay [13] was 34.4 nM. In assay [14], this molecule returned a koff of 0.027 s⁻¹.

B8: ABII60H5 (VHH)
VHH: EVQLVESGGGLVQVGGSLRLSCAASGNIGSINAMGWYRQAPGKEREWVAIITNSGSVNYGPDSVKGRFTISGDNAKNRVYLQMDSLKPEDTAVYYCAAESWGRSPLKYLGQGTQVTVSS
In assay [2], B8 displayed an EC50 greater than 1000 nM. The binding result with A-beta(1-16) peptide is listed as “binds”.

B9: ABII42B10 (VHH)
VHH: EVQLVESGGGLVQRGGSLRLSCAASGRTFSNLNMGWFRQAPGKEREFQAAISRSGGTTYYADSVKGRFTISRDNAKSTVFLQMNSLKPEDTAVYYCAAASPGGPINYGRAYDSWGQGTQVTVSS
For B9, the EC50 in assay [2] is 10.8 nM; in assay [3], 2.1 nM. Further, the binding result with A-beta(12-28) peptide is reported as “binds”. The IC50 in assay [13] amounted to 85.6 nM. For the same molecule, the “inhibition of peptide aggregation (ThT fluorescence), 28 µM VHH” value (shortened to “inhibition of peptide aggregation”) in assay [15] was 77%.

B10: ABII60A10 = ABII050 (VHH)
VHH: EVQLVESGGGLVQAGGSLRLSCAASGRTFNNYNMGWFRQAPGKEREFVAAVSRSGVSTYYADSVKGRFTISRDNAKNAVYLQMNSLKPEDTAIYYCGAAYRGTAINVRRSYDSWGQGTQVTVSS
For B10, the IC50 in assay [16] was 19 nM; in [10], 11.1 nM; in assay [18] it was 30 nM; in assay [6], 6.3 nM; in assay [13], 11.1 nM; in assay [19] it was 19 nM. Moreover, the half-maximal inhibitory concentration (IC50) in assay [20] is greater than 1000 nM. Also, the concentration for a half-maximal effect (EC50) in assay [9] is 4.9 nM; in assay [2] it was 4.9 nM; in assay [11], 0.8 nM; in assay [3] it was 0.8 nM. The “fold improved IC50 against reference VHH 2D2” value in [17] worked out at 36 fold. Further, the “Aggregation inhibition (% inhibition at 26 µM)” value in [12] came out at 80%. The binding result with A-beta(12-28) peptide is listed as “binds”. For the same molecule, the “inhibition of peptide aggregation” value in [15] was 80%.

B11: ABII059 (VHH)
VHH: B10 VHH with V5L, A14P, E44G, A75S, A78T, K87R, I93V, G97A, D112S, Q119L
notes: humanized variant of ABII050
In the case of B11, the values for the IC50 in assay [16], in assay [6] and in assay [19] were 33 nM, 12.8 nM and 33 nM, respectively. Besides, in [12], the “Aggregation inhibition (% inhibition at 26 µM)” value came out at 80%. For the same molecule, the “fold difference of EC50 against the 2D2 and 2G6 VHHs” value in assay [21] is greater than 50 fold. For the same molecule, the binding result in assay [22] is “binds”.

B12: ABII14D4 (VHH)
VHH: EVQLVESGGGLVQAGGSLRLSCAASGRTFSTYNMAWFRHAPGKEREFVAAISRSGGSTYYVDSVKGRFTISRDNAKNTVYLQMNSLKPEDTAIYYCAAAPRGRSIVTTATYDYWGQGTQVTVSS
Regarding B12, the EC50 in [2] is 124 nM; in assay [3] it was 6.8 nM. Further, the binding result with A-beta(12-28) peptide was “binds”. This molecule also returned an IC50 in assay [13] of 744 nM. Besides, the “inhibition of peptide aggregation” value in [15] was 78%.

B13: ABII60D2 (VHH)
VHH: EVQLVESGGGSVQAGGSLRLSCAYSGSIFSIKTMGWYRQAPGKQRELVGRITSGDSTNYADSVKGRFTISRDKAKTTVYLQMNNLKPEDTAVYYCAARRPWPRSDVWGQGTQVTVSS
In turn, B13 yielded a 50% effective concentration (EC50) in assay [2] greater than 1000 nM. For the same molecule, the binding result in the assay with A-beta(1-16) peptide is reported as “binds”.
